Reference: the supplement of paper PMC10567573

B1: RSPH3 (parent)
chain: LELQRQREARKRALARKQAQEQLR
B2: BCL2L13 (parent)
chain: QSLDQEILLKVKTEIEEELKSLDK

Variants of: B1
Experiment: protein stability index of a GFP-peptide fusion (GPS, HEK-293T) (PSI 1-6); higher = more stable
Conditions: c terminus: a fixed tail appended
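Also: lentivirally expressed fusions sorted by FACS into six bins by GFP to DsRed ratio, PSI derived from sequencing read proportions per bin multiplied by bin number.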

Question: For LELRRQREARKRALARKQAQEQLR, which protein stability index is on record?
Answer: Its protein stability index is 4.02.

Question: Which protein stability index does the source give for RELQRQREARKRALARKQAQEQLR here?
Answer: Its protein stability index is 4.4.

Question: Which protein stability index does the source give for GELQRQREARKRALARKQAQEQLR here?
Answer: Its protein stability index is 4.14.

Question: With DELQRQREARKRALARKQAQEQLR as the variant, how does the protein stability index read?
Answer: The protein stability index was 4.08.

Question: With SELQRQREARKRALARKQAQEQLR as the variant, how does the protein stability index read?
Answer: Its protein stability index is 3.85.

Question: For AELQRQREARKRALARKQAQEQLR, which protein stability index is on record?
Answer: The protein stability index was 3.16.

Question: Which protein stability index does the source give for FELQRQREARKRALARKQAQEQLR here?
Answer: Its protein stability index is 3.22.

Question: Which protein stability index does the source give for IELQRQREARKRALARKQAQEQLR here?
Answer: Its protein stability index is 3.29.

Question: For QELQRQREARKRALARKQAQEQLR, which protein stability index is on record?
Answer: The protein stability index was 3.82.

Question: With CELQRQREARKRALARKQAQEQLR as the variant, how does the protein stability index read?
Answer: The protein stability index was 4.05.

Question: Which protein stability index does the source give for PELQRQREARKRALARKQAQEQLR here?
Answer: Its protein stability index is 4.45.

Question: With WELQRQREARKRALARKQAQEQLR as the variant, how does the protein stability index read?
Answer: The protein stability index was 2.71.

Question: With YELQRQREARKRALARKQAQEQLR as the variant, how does the protein stability index read?
Answer: The protein stability index was 3.76.

Question: Which protein stability index does the source give for MELQRQREARKRALARKQAQEQLR here?
Answer: Its protein stability index is 4.24.

Question: With KELQRQREARKRALARKQAQEQLR as the variant, how does the protein stability index read?
Answer: The protein stability index was 3.78.

Question: With NELQRQREARKRALARKQAQEQLR as the variant, how does the protein stability index read?
Answer: Its protein stability index is 4.27.

Question: For EELQRQREARKRALARKQAQEQLR, which protein stability index is on record?
Answer: The protein stability index was 4.26.

Question: For TELQRQREARKRALARKQAQEQLR, which protein stability index is on record?
Answer: Its protein stability index is 3.34.

Question: For HELQRQREARKRALARKQAQEQLR, which protein stability index is on record?
Answer: Its protein stability index is 3.96.

Question: Which protein stability index does the source give for VELQRQREARKRALARKQAQEQLR here?
Answer: Its protein stability index is 3.64.

Question: For LELQRQREGRKRALARKQAQEQLR, which protein stability index is on record?
Answer: The protein stability index was 4.04.

Question: With LELQRQREDRKRALARKQAQEQLR as the variant, how does the protein stability index read?
Answer: The protein stability index was 3.63.

Question: Which protein stability index does the source give for LELQRQREFRKRALARKQAQEQLR here?
Answer: Its protein stability index is 2.73.

Question: For LELQRQREERKRALARKQAQEQLR, which protein stability index is on record?
Answer: Its protein stability index is 3.85.

Question: For LELQRQRECRKRALARKQAQEQLR, which protein stability index is on record?
Answer: The protein stability index was 4.05.

Question: With LEAQRQREARKRALARKQAQEQLR as the variant, how does the protein stability index read?
Answer: Its protein stability index is 4.14.

Question: With LENQRQREARKRALARKQAQEQLR as the variant, how does the protein stability index read?
Answer: Its protein stability index is 3.86.

Question: Which protein stability index does the source give for LEGQRQREARKRALARKQAQEQLR here?
Answer: Its protein stability index is 4.43.

Question: For LEYQRQREARKRALARKQAQEQLR, which protein stability index is on record?
Answer: The protein stability index was 3.89.

Question: With LECQRQREARKRALARKQAQEQLR as the variant, how does the protein stability index read?
Answer: Its protein stability index is 3.12.

Question: For LEDQRQREARKRALARKQAQEQLR, which protein stability index is on record?
Answer: Its protein stability index is 4.14.

Question: Which protein stability index does the source give for LEPQRQREARKRALARKQAQEQLR here?
Answer: The protein stability index was 4.18.

Question: Which protein stability index does the source give for LEMQRQREARKRALARKQAQEQLR here?
Answer: The protein stability index was 3.6.

Question: Which protein stability index does the source give for LEKQRQREARKRALARKQAQEQLR here?
Answer: Its protein stability index is 4.17.

Question: For LEEQRQREARKRALARKQAQEQLR, which protein stability index is on record?
Answer: The protein stability index was 5.04.

Question: With LERQRQREARKRALARKQAQEQLR as the variant, how does the protein stability index read?
Answer: Its protein stability index is 3.54.

Question: With LEIQRQREARKRALARKQAQEQLR as the variant, how does the protein stability index read?
Answer: Its protein stability index is 3.74.

Question: For LEQQRQREARKRALARKQAQEQLR, which protein stability index is on record?
Answer: The protein stability index was 3.9.

Question: For LEHQRQREARKRALARKQAQEQLR, which protein stability index is on record?
Answer: Its protein stability index is 4.42.

Question: For LESQRQREARKRALARKQAQEQLR, which protein stability index is on record?
Answer: The protein stability index was 4.14.

Question: Which protein stability index does the source give for LEWQRQREARKRALARKQAQEQLR here?
Answer: The protein stability index was 3.52.

Question: With LETQRQREARKRALARKQAQEQLR as the variant, how does the protein stability index read?
Answer: The protein stability index was 4.35.

Question: Which protein stability index does the source give for LEFQRQREARKRALARKQAQEQLR here?
Answer: Its protein stability index is 3.81.

Question: Which protein stability index does the source give for LEVQRQREARKRALARKQAQEQLR here?
Answer: The protein stability index was 4.29.

Question: For LELQRQRTARKRALARKQAQEQLR, which protein stability index is on record?
Answer: Its protein stability index is 4.06.

Question: Which protein stability index does the source give for LELQRQRMARKRALARKQAQEQLR here?
Answer: The protein stability index was 3.43.

Question: For LELQRQRIARKRALARKQAQEQLR, which protein stability index is on record?
Answer: The protein stability index was 2.38.

Question: For LELQRQRLARKRALARKQAQEQLR, which protein stability index is on record?
Answer: Its protein stability index is 2.98.

Question: Which protein stability index does the source give for LELQRQRDARKRALARKQAQEQLR here?
Answer: The protein stability index was 3.81.

Question: Which protein stability index does the source give for LELQRQRPARKRALARKQAQEQLR here?
Answer: The protein stability index was 3.67.

Question: With LELQRQRNARKRALARKQAQEQLR as the variant, how does the protein stability index read?
Answer: Its protein stability index is 3.44.

Question: For LELQRQRYARKRALARKQAQEQLR, which protein stability index is on record?
Answer: The protein stability index was 3.46.

Question: For LELQRQRHARKRALARKQAQEQLR, which protein stability index is on record?
Answer: Its protein stability index is 3.83.

Question: With LELQRQRGARKRALARKQAQEQLR as the variant, how does the protein stability index read?
Answer: The protein stability index was 3.66.

Question: Which protein stability index does the source give for LELQRQRQARKRALARKQAQEQLR here?
Answer: The protein stability index was 3.71.

Question: Which protein stability index does the source give for LELQRQRRARKRALARKQAQEQLR here?
Answer: The protein stability index was 4.26.

Question: Which protein stability index does the source give for LELQRQRVARKRALARKQAQEQLR here?
Answer: The protein stability index was 3.39.

Question: Which protein stability index does the source give for LELQRQRFARKRALARKQAQEQLR here?
Answer: Its protein stability index is 3.24.

Question: Which protein stability index does the source give for LELQRQRWARKRALARKQAQEQLR here?
Answer: Its protein stability index is 3.

Question: Which protein stability index does the source give for LELQRQRAARKRALARKQAQEQLR here?
Answer: The protein stability index was 3.99.

Question: For LELQRQRCARKRALARKQAQEQLR, which protein stability index is on record?
Answer: Its protein stability index is 3.64.

Question: Which protein stability index does the source give for LELQRQRKARKRALARKQAQEQLR here?
Answer: The protein stability index was 3.95.

Question: With LELQRQRSARKRALARKQAQEQLR as the variant, how does the protein stability index read?
Answer: Its protein stability index is 3.62.

Variants of: B2
Experiment: as above
Conditions: c terminus: a fixed tail appended

Question: Which protein stability index does the source give for QSLDQEILLKVKTEIEEELKSLQK here?
Answer: Its protein stability index is 4.48.

Question: For QSLDQEILLKVKTEIEEELKSLPK, which protein stability index is on record?
Answer: The protein stability index was 4.85.

Question: With QSLDQEILLKVKTEIEEELKSLRK as the variant, how does the protein stability index read?
Answer: Its protein stability index is 3.78.

Question: With QSLDQEILLKVKTEIEEELKSLMK as the variant, how does the protein stability index read?
Answer: Its protein stability index is 2.33.

Question: With QSLDQEILLKVKTEIEEELKSLIK as the variant, how does the protein stability index read?
Answer: Its protein stability index is 3.3.

Question: With QSLDQEILLKVKTEIEEELKSLTK as the variant, how does the protein stability index read?
Answer: Its protein stability index is 4.47.

Question: Which protein stability index does the source give for QSLDQEILLKVKTEIEEELKSLHK here?
Answer: The protein stability index was 3.7.

Question: For QSLDQEILLKVKTEIEEELKSLFK, which protein stability index is on record?
Answer: Its protein stability index is 2.14.

Question: With QSLDQEILLKVKTEIEEELKSLGK as the variant, how does the protein stability index read?
Answer: The protein stability index was 4.41.

Question: Which protein stability index does the source give for QSLDQEILLKVKTEIEEELKSLKK here?
Answer: The protein stability index was 4.33.

Question: Which protein stability index does the source give for QSLDQEILLKVKTEIEEELKSLLK here?
Answer: Its protein stability index is 2.2.

Question: For QSLDQEILLKVKTEIEEELKSLNK, which protein stability index is on record?
Answer: Its protein stability index is 4.04.

Question: For QSLDQEILLKVKTEIEEELKSLDD, which protein stability index is on record?
Answer: The protein stability index was 5.27.

Question: For QSLDQEILLKVKTEIEEELKSLDL, which protein stability index is on record?
Answer: The protein stability index was 4.71.

Question: With QSLDQEILLKVKTEIEEELKSLDT as the variant, how does the protein stability index read?
Answer: The protein stability index was 4.79.

Question: Which protein stability index does the source give for QSLDQEILLKVKTEIEEELKSLDV here?
Answer: The protein stability index was 4.71.

Question: With QSLDQEILLKVKTEIEEELKSLDF as the variant, how does the protein stability index read?
Answer: The protein stability index was 4.89.

Question: With QSLDQEILLKVKTEIEEELKSLDH as the variant, how does the protein stability index read?
Answer: The protein stability index was 4.36.

Question: For QSLDQEILLKVKTEIEEELKSLDI, which protein stability index is on record?
Answer: Its protein stability index is 4.58.

Question: Which protein stability index does the source give for QSLDQEILLKVKTEIEEELKSLDP here?
Answer: Its protein stability index is 5.06.

Question: With QSLDQEILLKVKTEIEEELKSLDG as the variant, how does the protein stability index read?
Answer: The protein stability index was 5.12.

Question: For QSLDQEILLKVKTEIEEELKSLDY, which protein stability index is on record?
Answer: Its protein stability index is 4.25.

Question: Which protein stability index does the source give for QSLDQEILLKVKTEIEEELKSLDN here?
Answer: The protein stability index was 5.04.

Question: With QSLDQEILLKVKTEIEEELKSLDA as the variant, how does the protein stability index read?
Answer: The protein stability index was 5.1.

Question: For QSLDQEILLKVKTEIEEELKSLDS, which protein stability index is on record?
Answer: The protein stability index was 4.9.

Question: With QSLDQEILLKVKTEIEEELKSLDR as the variant, how does the protein stability index read?
Answer: Its protein stability index is 4.53.

Question: With QSLDQEILLKVKTEIEEELKSLDE as the variant, how does the protein stability index read?
Answer: Its protein stability index is 5.74.

Question: For QSLDQEILLKVKTEIEEELKSLDC, which protein stability index is on record?
Answer: Its protein stability index is 4.53.

Question: Which protein stability index does the source give for QSLDQEILLKVKTEIEEELKSLDW here?
Answer: The protein stability index was 4.94.

Question: Which protein stability index does the source give for QSLDQEILLKVKTEIEEELKSLDQ here?
Answer: The protein stability index was 4.73.

Question: Which protein stability index does the source give for QSLDQEILLKVKTEIEEELKSLDM here?
Answer: The protein stability index was 3.67.
